Reference: US12448434B2, “Antibodies specifically recognizing Pseudomonas PcrV and uses thereof” (priority 2019, dated 2025)
Changes are numbered by the printed parent chain.

B1: 7B1: optimized anti-PcrV mAb clone; VH SEQ ID NO: 62, VL SEQ ID NO: 67 (antibody, V domains shown)
VH: EVQLLESGGGLVQPGGSLRLSCTASGFTFSDNYMSWVRQAPGKGLDWVSVISESGGSTNYADSVKGRFSTSRDNSKSTLYLDMNSLRAEDTAIYYCAKGRFSTLSSHFFRAVYGMDVWGQGTAVTVSS
VL: DIQLTQSPSSLSASVGDRVTITCRASQGISSYLAWYQQKPGKAPKLLIYAASTLQSGVPSRFSGSGSGTDFTLTISSLQPEDFATYYCQQLSSYPLTFGGGTKVEIK
B2: 7C1: optimized anti-PcrV mAb clone; VH SEQ ID NO: 52, VL SEQ ID NO: 65 (antibody, V domains shown)
VH: B1 VH with Y33H, V50G, L104S, F109Y
VL: B1 VL with T97S
B3: 8C1: optimized anti-PcrV mAb clone; VH SEQ ID NO: 51, VL SEQ ID NO: 67 (antibody, V domains shown)
VH: B1 VH with Y33H, V50G, L104N, S106A
VL: B1 VL

Experiments:
[1] = test system: P. aeruginosa strains O6-57/66, O11-PA103, O1-52/66 and O16-177/81; experiment: A549 cell lysis inhibition, various strains (average); type: cell-based, Pseudomonas aeruginosa; conditions: FIGS. 6A-6D
Method: To assay for ability to inhibit cytotoxicity and cell lysis caused by P. aeruginosa, the candidate anti-PcrV antibodies were added to human bronchoepithelial cell line A549 or human histiocytic lymphoma cell line U937 seeded in white 96-well plates (Nunc Nunclon Delta) in DMEM plus 10% fetal bovine serum. Log-phase strain PA103(O11) P. aeruginosa was added at a multiplicity of infection (MOI) of 10 and incubated for 2 h at 37° C. and 5% CO2, followed by 20 minutes of equilibration at room temperature. Lactate dehydrogenase (LDH) released from lysed cells was quantified using the CytoTox-ONE kit (Promega), to assay membrane integrity. The relative amount of lysis inhibition was plotted accordingly. IC50 values for the antibodies were also determined.
The optimized anti-PcrV mAb clones 7C1, 8C1, and 7B1 were analyzed for their abilities to inhibit A549 cell lysis by various strains of P. aeruginosa, namely strains O6-57/66, O11-PA103, O1-52/66 and O16-177/81, as compared to the parental 13-42 mAb. A549 cell lysis inhibition assay was performed as described in Example 2.

PcrV = experiment: BIACORE binding to PcrV; set-up: species or system Pseudomonas aeruginosa; conditions: data not shown
Method: The association constant (ka), dissociation constant (kd) and the equilibrium dissociation constant (kD) for binding of optimized anti-PcrV mAb clones 7B1, 7C1, 8C1, 6D10 and reference antibody V2L2-MD to PcrV were tested by BIACORE (GE company).

BV particles = experiment: Cross-reactivity to BV particles by ELISA; type: binding; conditions: FIG. 3
Method: Cross-reactivity to BV particles: Using ELISA, optimized antibodies 7C1, 7B1, 8C1, 6D10, and reference antibodies V2L2-MD and Mab166 were tested for cross-reactivity to BV particles according to the method described previously (See Hötzel I, et al, 2012, mAbs 4:6, 753-760).

[2] = test system: P. aeruginosa (PA103 strain); experiment: Prophylactic mouse acute pneumonia model, survival; type: in vivo, BALB/c mice; conditions: i.p. 24 h before infection, 1 or 10 mg/kg; 1*LD90 or 2*LD90; 7 days
Method: The candidate anti-PcrV antibodies were assayed for the ability to improve survival in a mouse acute pneumonia model. In a prophylactic model, 7-8 week old BALB/c mice (Vital River Laboratory) were administered the candidate antibodies or PBS intraperitoneally (i.p.) 24 hr before infection, at doses of 1, 5, 10 or 25 mg/kg mouse weight. […] Mouse survival was recorded for up to 7 days post-infection.
In a prophylactic model, 7-8 week old BALB/c mice (Vital River Laboratory) were administered with antibodies intraperitoneally (i.p.) 24 h before infection, at doses of 1 or 10 mg/kg mouse weight. […] Mouse survival was recorded for up to 7 days post-infection. The results were represented as Kaplan-Meier survival curves.

[3] = test system: P. aeruginosa (O6-57/66 strain); experiment: Prophylactic mouse intraperitoneal infection model, survival; type: in vivo, BALB/c mice; conditions: 5 mg/kg antibody dose i.p. 24 h before infection; 3*LD90; 5 days
Method: The ability of the optimized anti-PcrV antibodies 7C1, 7B1 and 8C1 to improve survival in a mouse intraperitoneal infection model was evaluated in comparison to parental 13-42 mAb. HIV-10E8 was used as negative control. The mouse intraperitoneal infection model was generated as described previously (See Warrener et al., 2014, Antimicrob. Agents Chemother., 58, 4384-4391).
In a prophylactic model, 7-8 week old BALB/c mice (Vital River Laboratory) were administered antibodies by intraperitoneal (i.p.) injection 24 h before infection, at doses of 5 or 25 mg/kg mouse weight. To induce intraperitoneal infection, the BALB/c mice were intraperitoneally inoculated with P. aeruginosa (O6-57/66 strain) suspended in a 300 μl inoculum at triple the lethal dose (3*LD90=7×10^5 CFU). Mouse survival was recorded for up to 5 days post-infection.

[4] = test system: P. aeruginosa (PA103 strain); experiment: Mouse intraperitoneal infection model, antibody alone or combined with antibiotics, survival; type: in vivo, BALB/c mice; conditions: antibody 5 mg/kg i.p. 24h before infection; 3*LD90; 5 days; FIG. 12A
Method: The ability of the optimized anti-PcrV antibody 7B1 or 8C1 to improve survival in mouse intraperitoneal infection model was evaluated in comparison to antibiotics Meropenem, Tobramycin, Ciprofloxacin; and also in comparison to combination treatment of 7B1 or 8C1 with either antibiotic. HIV-10E8 was used as negative control.
In a prophylactic model for anti-PcrV testing, 7-8 week old BALB/c mice (Vital River Laboratory) were intraperitoneally injected with antibody 24h before infection or with antibiotic 1h post infection. Specifically, the mice were administered with either optimized anti-PcrV antibody clone 7B1 or 8C1 (at 5 mg/kg), Meropenem (at 3 mg/kg), Tobramycin (at 10 mg/kg), Ciprofloxacin (at 30 mg/kg), or a combination of 7B1 or 8C1 with one of the antibiotics. To induce intraperitoneal infection, the BALB/c mice were intraperitoneally inoculated with P. aeruginosa (PA103 strain) suspended in a 300 μl inoculum at triple the lethal dose (3*LD90=7×10^5 CFU). Mouse survival was recorded for up to 5 days post-infection.

mutated PcrV = experiment: Epitope mapping: ELISA binding to alanine-scanning mutated PcrV; set-up: species or system P. aeruginosa
Method: Using the discovery studio software, the predicted binding sites on PcrV for 7B1 and the optimized antibodies were identified, and the amino acid residues within the binding sites and in proximity to the binding sites were selected and subjected to alanine scanning. Subsequently, PcrV proteins carrying these selected mutations were expressed. The binding affinity of 7B1-IgG1 for each mutated PcrV protein was analyzed using ELISA. FIGS. 14A-14D show the ELISA binding curves of the antibodies for mutated PcrV, where mutation positions were according to sequence of SEQ ID NO: 71. As used herein, PcrV represents a His-tagged wild-type P. aeruginosa PcrV (PcrV-6His). Mutations at various positions of the amino acid sequence of the wild type PcrV were generated using alanine scanning as described above.

Molecule	efficacy in inhibiting A549 lysis by four strains relative to parental 13-42 mAb [1]	association and dissociation kinetics in PcrV binding (ka and kd values) (PcrV)	non-specific binding to BV particles (BV particles)	survival improvement relative to parental 13-42 mAb [2]	survival improvement relative to parental 13-42 mAb [3]	survival improvement of antibody alone relative to Meropenem (3 mg/kg) [4]	effect of PcrV mutation at position D165 on binding (mutated PcrV; FIG. 14C)	effect of PcrV mutation at position Q160 on binding (mutated PcrV; FIG. 14C)	effect of PcrV mutation at position D170 on binding (mutated PcrV; FIG. 14D)	effect of PcrV mutation at position D173 on binding (mutated PcrV; FIG. 14D)	effect of PcrV mutation at position S202 on binding (mutated PcrV; FIG. 14D)	effect of PcrV mutation at position T175 on binding (mutated PcrV; FIG. 14D)
B1	comparable efficacy in inhibiting A549 lysis	comparable association and dissociation kinetics	low levels of non-specific binding	comparable or better survival improvements	comparable or better survival improvement	better or comparable survival improvement	affected binding	significantly affected binding	affected binding	affected binding	affected binding	affected binding
B2	comparable efficacy in inhibiting A549 lysis	comparable association and dissociation kinetics	low levels of non-specific binding	comparable or better survival improvements	comparable or better survival improvement							
B3	comparable efficacy in inhibiting A549 lysis	comparable association and dissociation kinetics	low levels of non-specific binding									
